Test results from publication PMC5314338, “Structure of a LOV protein in apo-state and implications for construction of LOV-based optical tools” (Scientific Reports, 2017).

Biological target: W619_1-LOV, short LOV protein from Pseudomonas putida (Pseudomonas putida)
Test: crystal structure; apo-state; sitting drops grown in the dark, 100 mM MES pH 6.0-6.3, 1 M ammonium sulfate, 14 °C; space group I4(1), two molecules per asymmetric unit

stoichiometry N: 2
Substance: W619_1-LOV, short LOV protein from Pseudomonas putida (natural protein)
